Values quoted from earlier work as cited in publication PMC5659385.

Biological target: concanavalin A (Canavalia ensiformis) (UniProt P02866)
Chain of UniProt P02866 (P02866 30-148, chain 1 of 2): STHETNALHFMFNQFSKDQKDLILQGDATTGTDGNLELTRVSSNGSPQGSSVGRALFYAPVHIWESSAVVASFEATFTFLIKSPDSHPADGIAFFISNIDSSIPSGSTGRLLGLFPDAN
Chain of UniProt P02866 (P02866 164-281, chain 2 of 2): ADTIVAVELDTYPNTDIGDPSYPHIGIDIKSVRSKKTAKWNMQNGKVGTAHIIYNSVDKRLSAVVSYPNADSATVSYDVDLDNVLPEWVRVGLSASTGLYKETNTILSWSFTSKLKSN

## glucose oxidase (from UniProt P13006)
  Kd: 1.64 nM
